Experimental data published in patent US20120316071A1.
Substitutions are numbered along the chain they refer to. Names and notes keep the numbering of the source.

Key:
[1] = biological target: rHuman EGF R/Fc Chimera, CF (R&D Systems Cat#344-ER) (human) (UniProt P00533); test: Multispot ECL (MSD) titration; antigen spotted on plate; Fab 1570 nM; blank spot 866
[2] = biological target: rHuman EGF R/Fc Chimera, CF (R&D Systems Cat#344-ER) (human) (UniProt P00533); test: Multispot ECL (MSD) titration; antigen spotted on plate; Fab […]; blank spot 149
[3] = biological target: rHuman EGF R/Fc Chimera, CF (R&D Systems Cat#344-ER) (human) (UniProt P00533); test: Multispot ECL (MSD) titration; antigen spotted on plate; Fab 98.1 nM; blank spot 210
[4] = biological target: rHuman EGF R/Fc Chimera, CF (R&D Systems Cat#344-ER) (human) (UniProt P00533); test: Multispot ECL (MSD) titration; antigen spotted on plate; Fab 392.5 nM; blank spot 338
[5] = biological target: rHuman ErbB2/Fc Chimera (human) (UniProt P04626); test: ECL (MSD) multispot assay, antigen spotted; blank spot of this row 236
[6] = biological target: rHuman ErbB2/Fc Chimera (human) (UniProt P04626); test: ECL (MSD) multispot assay, antigen spotted; blank spot of this row 223
[7] = biological target: Recombinant Human DLL4 (R&D Systems Cat#1506-D4/CF) (human) (UniProt Q9NR61); test: ELISA, DLL4 coated on plate, Fab at […] (cells of this row shifted one column left)
[8] = biological target: rHuman ErbB2/Fc Chimera, CF (R&D Systems Cat#1129-ER) (human) (UniProt P04626); test: ECL multispot (MSD) binding assay, antigen spotted on plate, Fab 0.04 uM
[9] = biological target: rHuman EGF R/Fc Chimera, CF (R&D Systems Cat#344-ER) (human) (UniProt P00533); test: as above
[10] = biological target: rHuman IGF-1 sR, (IGF-1 sR), CF (R&D Systems Cat#391-GR) (human) (UniProt P08069); test: MSD Multispot ECL, antigen spotted on plate, Fab at 30 nM; blank spot 213
[11] = biological target: rHuman HGF R/c-MET/Fc Chimera, CF (R&D Systems Cat#358-MT/CF) (human) (UniProt P08581); test: as above
Chain of rHuman HGF R/c-MET/Fc Chimera, CF (R&D Systems Cat#358-MT/CF) (human) (P08581 25-932, change not shown): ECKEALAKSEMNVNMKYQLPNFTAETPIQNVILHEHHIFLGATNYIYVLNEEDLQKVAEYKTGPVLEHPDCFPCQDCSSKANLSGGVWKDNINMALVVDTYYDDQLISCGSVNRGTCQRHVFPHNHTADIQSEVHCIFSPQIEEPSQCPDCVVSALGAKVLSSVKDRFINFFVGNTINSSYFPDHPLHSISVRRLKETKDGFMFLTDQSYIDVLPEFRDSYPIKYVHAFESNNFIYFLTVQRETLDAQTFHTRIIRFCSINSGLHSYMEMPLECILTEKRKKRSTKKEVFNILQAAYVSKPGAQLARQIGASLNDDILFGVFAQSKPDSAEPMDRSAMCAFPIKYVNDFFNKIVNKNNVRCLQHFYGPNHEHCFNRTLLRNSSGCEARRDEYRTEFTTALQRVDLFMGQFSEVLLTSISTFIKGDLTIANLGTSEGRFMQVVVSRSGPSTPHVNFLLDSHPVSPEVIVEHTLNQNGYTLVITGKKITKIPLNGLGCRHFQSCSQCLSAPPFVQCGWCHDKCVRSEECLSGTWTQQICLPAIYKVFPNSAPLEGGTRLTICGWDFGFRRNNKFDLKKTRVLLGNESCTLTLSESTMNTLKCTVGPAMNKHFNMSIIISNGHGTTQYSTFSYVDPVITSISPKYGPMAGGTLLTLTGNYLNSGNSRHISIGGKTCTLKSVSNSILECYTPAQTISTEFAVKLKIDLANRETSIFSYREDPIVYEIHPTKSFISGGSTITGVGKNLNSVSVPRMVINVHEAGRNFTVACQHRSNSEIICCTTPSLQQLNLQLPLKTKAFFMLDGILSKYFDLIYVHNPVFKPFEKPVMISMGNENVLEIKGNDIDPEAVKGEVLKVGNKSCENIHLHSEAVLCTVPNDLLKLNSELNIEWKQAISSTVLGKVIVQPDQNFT

[12] = biological target: rHuman ErbB2/Fc Chimera, CF (R&D Systems Cat#1129-ER) (human) (UniProt P04626); test: as above
[13] = biological target: rHuman EGF R/Fc Chimera, CF (R&D Systems Cat#344-ER) (human) (UniProt P00533); test: as above
[14] = biological target: rHuman IGF-1 sR, (IGF-1 sR), CF (R&D Systems Cat#391-GR) (human) (UniProt P08069); test: MSD Multispot ECL, antigen spotted on plate, Fab at 60 nM; blank spot 237
[15] = biological target: rHuman HGF R/c-MET/Fc Chimera, CF (R&D Systems Cat#358-MT/CF) (human) (UniProt P08581); test: as above
[16] = biological target: rHuman ErbB2/Fc Chimera, CF (R&D Systems Cat#1129-ER) (human) (UniProt P04626); test: as above
[17] = biological target: rHuman EGF R/Fc Chimera, CF (R&D Systems Cat#344-ER) (human) (UniProt P00533); test: as above
[18] = biological target: rHuman IGF-1 sR, (IGF-1 sR), CF (R&D Systems Cat#391-GR) (human) (UniProt P08069); test: MSD Multispot ECL, antigen spotted on plate, Fab at 3.8 nM; blank spot 198
[19] = biological target: rHuman HGF R/c-MET/Fc Chimera, CF (R&D Systems Cat#358-MT/CF) (human) (UniProt P08581); test: as above
[20] = biological target: rHuman ErbB2/Fc Chimera, CF (R&D Systems Cat#1129-ER) (human) (UniProt P04626); test: as above
[21] = biological target: rHuman EGF R/Fc Chimera, CF (R&D Systems Cat#344-ER) (human) (UniProt P00533); test: as above
[22] = biological target: rHuman IGF-1 sR, (IGF-1 sR), CF (R&D Systems Cat#391-GR) (human) (UniProt P08069); test: MSD Multispot ECL, antigen spotted on plate, Fab at 480 nM; blank spot 362
[23] = biological target: rHuman HGF R/c-MET/Fc Chimera, CF (R&D Systems Cat#358-MT/CF) (human) (UniProt P08581); test: as above
[24] = biological target: rHuman ErbB2/Fc Chimera, CF (R&D Systems Cat#1129-ER) (human) (UniProt P04626); test: as above
[25] = biological target: rHuman EGF R/Fc Chimera, CF (R&D Systems Cat#344-ER) (human) (UniProt P00533); test: as above
[26] = biological target: rHuman IGF-1 sR, (IGF-1 sR), CF (R&D Systems Cat#391-GR) (human) (UniProt P08069); test: MSD Multispot ECL, antigen spotted on plate, Fab at 7.5 nM; blank spot 217
[27] = biological target: rHuman HGF R/c-MET/Fc Chimera, CF (R&D Systems Cat#358-MT/CF) (human) (UniProt P08581); test: as above
[28] = biological target: rHuman ErbB2/Fc Chimera, CF (R&D Systems Cat#1129-ER) (human) (UniProt P04626); test: as above
[29] = biological target: rHuman EGF R/Fc Chimera, CF (R&D Systems Cat#344-ER) (human) (UniProt P00533); test: as above
[30] = biological target: rHuman IGF-1 sR, (IGF-1 sR), CF (R&D Systems Cat#391-GR) (human) (UniProt P08069); test: MSD Multispot ECL, antigen spotted on plate, Fab at 120 nM; blank spot 363
[31] = biological target: rHuman HGF R/c-MET/Fc Chimera, CF (R&D Systems Cat#358-MT/CF) (human) (UniProt P08581); test: as above
[32] = biological target: rHuman ErbB2/Fc Chimera, CF (R&D Systems Cat#1129-ER) (human) (UniProt P04626); test: as above
[33] = biological target: rHuman EGF R/Fc Chimera, CF (R&D Systems Cat#344-ER) (human) (UniProt P00533); test: as above
[34] = biological target: rHuman IGF-1 sR, (IGF-1 sR), CF (R&D Systems Cat#391-GR) (human) (UniProt P08069); test: MSD Multispot ECL, antigen spotted on plate, Fab at 240 nM; blank spot 316
[35] = biological target: rHuman HGF R/c-MET/Fc Chimera, CF (R&D Systems Cat#358-MT/CF) (human) (UniProt P08581); test: as above
[36] = biological target: rHuman ErbB2/Fc Chimera, CF (R&D Systems Cat#1129-ER) (human) (UniProt P04626); test: as above
[37] = biological target: rHuman EGF R/Fc Chimera, CF (R&D Systems Cat#344-ER) (human) (UniProt P00533); test: as above
[38] = biological target: rHuman IGF-1 sR, (IGF-1 sR), CF (R&D Systems Cat#391-GR) (human) (UniProt P08069); test: MSD Multispot ECL, antigen spotted on plate, Fab at 15 nM; blank spot 261
[39] = biological target: rHuman HGF R/c-MET/Fc Chimera, CF (R&D Systems Cat#358-MT/CF) (human) (UniProt P08581); test: as above
[40] = biological target: rHuman ErbB2/Fc Chimera, CF (R&D Systems Cat#1129-ER) (human) (UniProt P04626); test: as above
[41] = biological target: rHuman EGF R/Fc Chimera, CF (R&D Systems Cat#344-ER) (human) (UniProt P00533); test: as above

B1: Fab VH1-46_IGHD3-10*01_IGHJ4*01 & O1_IGKJ1*01 (Fab, V domains shown)
VH: QVQLVQSGAEVKKPGASVKVSCKASGYTFTSYYMHWVRQAPGQGLEWMGIINPSGGSTSYAQKFQGRVTMTRDTSTSTVYMELSSLRSEDTAVYYCAREYYYGSGSYYNDYFDYWGQGTLVTVSS
VL: DIVMTQTPLSLPVTPGEPASISCRSSQSLLDSDDGNTYLDWYLQKPGQSPQLLIYTLSYRASGVPDRFSGSGSGTDFTLKISRVEAEDVGVYYCMQRIEFPSWTFGQGTKVEIKR
With B1 the ECL signal [1] was 2480, the ECL signal [2] was 317 and the ECL signal [3] was 4390. It also gave an ECL signal [4] of 744.

B2: Fab VH5-51_IGHD5-18*01>3_IGHJ4*01 G100K/G104T S84V & V3-4_IGLJ1*01 (Fab, V domains shown)
VH: EVQLVQSGAEVKKPGESLKISCKGSGYSFTSYWIGWVRQMPGKGLEWMGIIYPGDSDTRYSPSFQGQVTISADKSISTAYLQWVSLKASDTAMYYCARRKYSYTYDYFDYWGQGTLVTVSS
VL: QTVVTQEPSFSVSPGGTVTLTCGLSSGSVSTSYYPSWYQQTPGQAPRTLIYSTNTRSSGVPDRFSGSILGNKAALTITGAQADDESDYYCVLYMGSGISYVFGTGTKVTVL
Binder B2 has an ECL signal [5] of 1040.

B3: Fab VH5-51_IGHD5-18*01>3_IGHJ4*01 G100K/G104T S84L & V3-4_IGLJ1*01 (Fab, V domains shown)
VH: B2 VH with V84L
VL: B2 VL
In the case of B3, the ECL signal [6] is reported as 1090.

B4: Fab VH5-51_IGHD5-18*01>3_IGHJ4*01 G100K/G104T S28R (H:KT S28R) & V3-4_IGLJ1*01 M94R/S96M (L:RM) (Fab, V domains shown)
VH: B2 VH with S28R, V84S
VL: B2 VL with M94R, S96M
B4 was tested, and the ELISA signal [7] was 0.001.

B5: Fab VH5-51_IGHD5-18*01>3_IGHJ4*01 G100K/G104T (H:KT) & V3-4_IGLJ1*01 G97A (Fab, V domains shown)
VH: B2 VH with V84S
VL: B2 VL with G97A
B5 gave an ECL signal [8] of 1290 and an ECL signal [9] of 1060.

B6: Fab VH6-1_IGHD3-3*01_IGHJ4*01 & V4-3_IGLJ4*01 (Fab, V domains shown)
VH: QVQLQQSGPGLVKPSQTLSLTCAISGDSVSSNSAAWNWIRQSPSRGLEWLGRTYYRSKWYNDYAVSVKSRITINPDTSKNQFSLQLNSVTPEDTAVYYCAREYYDFWSGYYTDYFDYWGQGTLVTVSS
VL: QPVLTQPTSLSASPGASARLTCTLRSGINLGSYRIFWYQQKPESPPRYLLSYYSDSSKHQGSGVPSRFSGSKDASSNAGILVISGLQSEDEADYYCMIWHSSASFVFGGGTQLIIL
Work on B6 yielded an ECL signal [10] of 697, an ECL signal [11] of 640 and an ECL signal [12] of 726. For the same binder, the ECL signal [13] was 585, the ECL signal [14] was 654 and the ECL signal [15] was 623. The ECL signal [16] was 777, the ECL signal [17] was 679 and the ECL signal [18] was 463. It also gave an ECL signal [19] of 519, an ECL signal [20] of 714 and an ECL signal [21] of 511. For the same binder, the ECL signal [22] was 741, the ECL signal [23] was 951 and the ECL signal [24] was 965. It also gave an ECL signal [25] of 877, an ECL signal [26] of 642 and an ECL signal [27] of 558. It also gave an ECL signal [28] of 695, an ECL signal [29] of 582 and an ECL signal [30] of 813. It also gave an ECL signal [31] of 785, an ECL signal [32] of 822 and an ECL signal [33] of 658. For the same binder, the ECL signal [34] was 625, the ECL signal [35] was 834 and the ECL signal [36] was 833. The ECL signal [37] was 690, the ECL signal [38] was 705 and the ECL signal [39] was 694. It also gave an ECL signal [40] of 713 and an ECL signal [41] of 584.
